Measured values taken from patent publication US20160009772A1 (Hoffmann-La Roche, published 2016).
Where two headings read alike, the source gives them in different places.

What was measured:
[1] = molecular target: T1, IRF5(222-467, S430D), S430D phosphomimetic construct of IRF5 (222-467) (human, UniProt Q13568-4 222-467); test: TR-FRET IRF5 dimerization inhibition, S430D (222-467), peptide titrated
T1 construct: range 222-467; Used in the dimer assay in two tagged forms at once (biotin tag and His tag); S and R stand 10 residues further (S440, R363), so the construct is probably numbered on an isoform 10 residues shorter; also called mutant S430D (222-467); biotin tag IRF5(222-467, S430D)
T1 sequence (Q13568 232-477 S440D limits assumed): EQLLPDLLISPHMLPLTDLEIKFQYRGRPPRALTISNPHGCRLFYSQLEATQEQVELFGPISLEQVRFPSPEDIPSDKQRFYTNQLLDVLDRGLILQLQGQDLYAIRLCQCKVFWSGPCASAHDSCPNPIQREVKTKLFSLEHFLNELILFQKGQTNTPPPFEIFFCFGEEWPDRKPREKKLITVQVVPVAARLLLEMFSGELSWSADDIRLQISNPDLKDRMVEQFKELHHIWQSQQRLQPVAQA
Experimental: (§1) The samples were incubated at room temperature for 20 min. Seventeen microliters per well of detection solution containing 10 nM europium (Eu) conjugated streptavidin and 80 nM allophycocyanin (APC) conjugated anti-His antibody (Columbia Biosciences) in Assay Buffer (without DTT) were added. The samples were incubated at room temperature for 60 min followed by overnight incubation at 40 C and 30 ul per well were transferred to 384-well polystyrene plates (Matrix, Thermal Scientific) in duplicates. […] The data were processed in Excel XLfit and the IC50 values were calculated using a nonlinear curve-fitting algorithm (four parameter equation). The data represent an average of 3 independent experiments (each run in triplicates) and the reported errors represent standard deviation (s.d.).

[2] = molecular target: T1, IRF5(222-467, S430D), S430D …; test: as above; remark: listed apart in the source
Experimental: as §1

[3] = molecular target: T2, N-terminal His (six histadine)-tagged IRF5 (222-425) SEQ ID NO 22 (human, UniProt Q13568 222-425); test: direct binding TR-FRET, FITC peptide and Tb anti-His antibody (FIG. 2)
T2 construct: also called His tag IRF5(222-425); his-tagged IRF5 (222-425, lacking helix 5 and unable to homodimerize)
T2 sequence (Q13568 other isoform, or with tags, fused parts or gaps limits assumed): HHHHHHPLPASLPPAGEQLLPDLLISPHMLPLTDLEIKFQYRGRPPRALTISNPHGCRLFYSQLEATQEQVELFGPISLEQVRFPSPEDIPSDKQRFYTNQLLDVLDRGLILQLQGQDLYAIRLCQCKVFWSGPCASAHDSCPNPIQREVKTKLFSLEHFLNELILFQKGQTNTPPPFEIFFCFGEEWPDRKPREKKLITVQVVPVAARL
Experimental: Aliquots (1.6 μl per well) of 4 μM FITC peptide solution in DMSO were added into 96-well polypropylene plates (Corning). […] The samples were incubated at room temperature for 30 min. […] Samples were incubated at 4° C. for overnight and 18 μl per well were transferred to small volume 384-well polystyrene plates (Corning) in duplicates.

Ac-YLKFIPLKRAIWLIK-NH2 [Ac-YLKFIPLKRAIWLIK-NH2 (SEQ ID NO: 23), control CPP designed not to bind IRF5]
IC50 [1]: > 75 µM

Ac-IRLQISNPDLKDLMVQWFKDGGPSSGAPPPS-NH2 [Ac-IRLQISNPDLKDLMVQWFKDGGPSSGAPPPS-NH2 (SEQ ID NO: 9)]
IC50 [2]: 2.42 µM

Ac-PFPPLPIGEEAPKDDMVRFFKDLHQYLNVV-NH2 [Ac-PFPPLPIGEEAPKDDMVRFFKDLHQYLNVV-NH2 (SEQ ID NO: 10)]
IC50 [2]: 1.67 µM

Ac-YLKFIPLKRAIWLIK-NH2 (also: FITC label, position and linker not given here, Kept apart from m13) [control FITC labeled CPP designed not to bind IRF5 (SEQ ID NO: 23)]
binding result [3]: no binding (tested: 0-10.5 uM His tag IRF5(222-425))
